In patent US20230407367, “INTRINSICALLY DISORDERED PROTEINS FOR EXTRACTION OF NUCLEIC ACIDS” (published 2023):

T1: E3 ELP [(VPGXG)10-GKG]8 (synthetic construct)
T1 chain: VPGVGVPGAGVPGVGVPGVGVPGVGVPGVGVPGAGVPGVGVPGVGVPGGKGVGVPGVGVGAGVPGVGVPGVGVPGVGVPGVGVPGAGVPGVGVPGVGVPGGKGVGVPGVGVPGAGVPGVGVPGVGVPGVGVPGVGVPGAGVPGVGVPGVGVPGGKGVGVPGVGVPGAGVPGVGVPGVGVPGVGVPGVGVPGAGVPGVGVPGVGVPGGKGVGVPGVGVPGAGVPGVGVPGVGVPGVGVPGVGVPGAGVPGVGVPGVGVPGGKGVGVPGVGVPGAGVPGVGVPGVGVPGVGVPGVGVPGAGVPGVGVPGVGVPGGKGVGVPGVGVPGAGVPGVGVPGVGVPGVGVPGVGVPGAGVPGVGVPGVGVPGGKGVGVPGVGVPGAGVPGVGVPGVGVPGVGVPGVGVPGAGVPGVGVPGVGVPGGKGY

T2: H-20 His-ELP (synthetic construct)
T2 chain: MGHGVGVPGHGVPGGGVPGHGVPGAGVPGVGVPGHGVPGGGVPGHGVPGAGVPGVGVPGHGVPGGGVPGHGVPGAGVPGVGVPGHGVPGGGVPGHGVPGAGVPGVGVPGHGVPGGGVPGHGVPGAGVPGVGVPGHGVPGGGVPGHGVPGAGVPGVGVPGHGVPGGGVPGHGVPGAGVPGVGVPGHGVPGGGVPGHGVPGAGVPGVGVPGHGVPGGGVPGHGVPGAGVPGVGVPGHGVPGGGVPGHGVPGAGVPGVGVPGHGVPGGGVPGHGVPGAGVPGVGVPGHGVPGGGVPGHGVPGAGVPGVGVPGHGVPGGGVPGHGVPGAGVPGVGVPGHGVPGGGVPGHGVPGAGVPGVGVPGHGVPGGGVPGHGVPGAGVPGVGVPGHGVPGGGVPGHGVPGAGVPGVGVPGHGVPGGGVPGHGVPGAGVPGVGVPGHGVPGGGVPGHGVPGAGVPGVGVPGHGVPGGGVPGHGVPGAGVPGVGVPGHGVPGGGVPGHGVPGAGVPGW

T3: H-24 His-ELP (synthetic construct)
T3 chain: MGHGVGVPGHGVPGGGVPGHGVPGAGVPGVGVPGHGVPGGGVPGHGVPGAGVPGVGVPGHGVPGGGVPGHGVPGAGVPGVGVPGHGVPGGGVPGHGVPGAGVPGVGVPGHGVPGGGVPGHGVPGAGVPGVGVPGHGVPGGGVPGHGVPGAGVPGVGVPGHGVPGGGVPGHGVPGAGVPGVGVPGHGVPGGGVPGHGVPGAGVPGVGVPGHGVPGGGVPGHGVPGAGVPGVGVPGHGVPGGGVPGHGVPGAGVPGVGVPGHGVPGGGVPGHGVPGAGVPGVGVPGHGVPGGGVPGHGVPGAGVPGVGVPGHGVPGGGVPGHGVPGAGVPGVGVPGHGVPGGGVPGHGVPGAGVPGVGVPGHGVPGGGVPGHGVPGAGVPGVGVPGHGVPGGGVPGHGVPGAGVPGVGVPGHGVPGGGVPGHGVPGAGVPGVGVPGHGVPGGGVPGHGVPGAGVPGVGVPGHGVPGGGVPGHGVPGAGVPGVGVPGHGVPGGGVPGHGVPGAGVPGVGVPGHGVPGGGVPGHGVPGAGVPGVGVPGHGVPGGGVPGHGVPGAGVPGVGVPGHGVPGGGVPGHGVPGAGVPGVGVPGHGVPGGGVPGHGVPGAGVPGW

B1: Cy3-ssDNA (DNA-Cy3) (ssDNA)
DNA: TTTTTCCTAGAGAGTAGAGCCTGCTTCG
B2: ssDNA 28 nt (ssDNA)
DNA: TTTTTCCTAGAGAGTAGAGCCTGCTTCG

Tests used:
E3 ELP [(VPGXG)10-GKG]8 = target: T1, E3 ELP [(VPGXG)10-GKG]8; assay: coacervate partitioning at 55 C, no added NaCl, 100 mM sodium phosphate pH 7.0; 100 mM NaCl leaves much more DNA in dilute phase; settings: label: 5'-Cy3
Text: Across all t=0 samples at room temperature (T<Tt) no E3 condensates are observed (FIG. 3, A1 and D1) and all solution components are miscible and evenly distributed throughout the droplet volume (FIG. 3, A2, D2, A3 and D3). The incipient stages of thermally triggered E3 phase transition occur simultaneously throughout droplet volumes, corroborating demixing through spinodal decomposition for both +NaCl and −NaCl samples (FIG. 3, B1 and E1). […] Note that the recruitment of ssDNA-Cy3 into the E3 rich condensates is E3 concentration dependent. By contrast, addition of NaCl results in electrostatic shielding, partitioning more ssDNA-Cy3 in the solvent-rich phase (FIG. 3, B2 and C2). The combined E3 phase behavior and ssDNA-Cy3 partitioning for −NaCl and +NaCl is further evidenced by inspection of the merged brightfield and fluorescence microscopy images of FIG. 3, panels A3-F3.
To image the process of temperature-mediated E3 coacervation and interaction with DNA-Cy3, an Olympus IX83 fluorescence microscope (Olympus Life Science Technology Division, Center Valley, PA) was equipped with a Physitemp cooling and heating stage (TS4-MP/ER/PTU, Clifton, NJ) fitted with a temperature controller. Microfluidic droplets were generated using previously described methods and droplet generator. […]

H-20 His-ELP = target: T2, H-20 His-ELP; assay: EMSA; pH 6, room temperature, 0.1-100 uM; weaker than H-24
Protocol: (§1) According to the prediction of His-ELP charge as a function of pH (FIG. 1l A), at pH 6, H-20 (SEQ. ID. NO. 8) is expected to have a charge of ≈+33 and H-24 (SEQ. ID. NO. 9) is expected to have a greater charge of ≈+39 as it has more histidines in its sequence. The primary association between His-ELPs and NAs is via electrostatic interactions; thus, the protein with greater charge is expected to have a more robust binding activity. Gel retardation assays were performed to analyze the binding activity of the His-ELPs (and another ELP with 8 cationic lysine charges, E3) with tRNA and ssDNA as a function of protein concentration at pH 6 (FIG. 12). Binding and gel electrophoresis were conducted at room temperature, below the Tt of each of the proteins, and for both tRNA and ssDNA, the degree of NA migration retardation was dependent on protein concentration (see FIG. 4).

H-24 His-ELP = target: T3, H-24 His-ELP; assay: EMSA; pH 6, room temperature, 0.1-100 uM
Protocol: as §1

Binder	binding result (E3 ELP [(VPGXG)10-GKG]8)	binding result (H-20 His-ELP)	binding result (H-24 His-ELP)
B1	binds	–	–
B2	–	binds	binds
